The values below come from patent US20210238279A1 (Johns Hopkins, published 2021).

For assay [1], the target named is T1, human ZnT8 over-expressed in HEK293 cells (human, UniProt Q8IWU4 1-369).
T1 construct: whole, on cells; Cells were fixed and permeabilized for immunofluorescence and flow cytometry (intracellular staining); The same id is used for the detergent lysates of over-expressing cells in the HTRF assay; also called ZnT8(+) HEK293 cells; HEK293 cells stably expressing human ZnT8
T1 sequence (looked up): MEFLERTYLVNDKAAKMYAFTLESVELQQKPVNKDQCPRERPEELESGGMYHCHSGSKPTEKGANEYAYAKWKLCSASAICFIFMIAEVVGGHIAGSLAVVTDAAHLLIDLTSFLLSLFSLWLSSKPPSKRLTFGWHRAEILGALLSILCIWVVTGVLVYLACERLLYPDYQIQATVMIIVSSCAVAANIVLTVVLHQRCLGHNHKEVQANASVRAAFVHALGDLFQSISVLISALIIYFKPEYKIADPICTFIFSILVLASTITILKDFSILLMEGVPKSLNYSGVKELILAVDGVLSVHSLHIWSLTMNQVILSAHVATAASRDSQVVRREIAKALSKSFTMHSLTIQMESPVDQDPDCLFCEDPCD
The assay is described as follows: flow cytometry, serial mAb dilutions on fixed, permeabilized HEK293 cells stably expressing human ZnT8; one-component fit. From the text:
FIG. 6A-6C. mAb binding affinity. (FIG. 6A) Representative confocal microscopy images of immunofluorescence staining of fixed and saponin-permeabilized HEK293 cells with mAb20 or mAb39 staining as indicated. ZnT8(+) or ZnT8(−) denotes HEK293 cells w/o ZnT8 over-expression. Red: mAb20 or mAb39 staining, blue: DAPI, scale bar: 5 um. (FIG. 6B) Histograms of flow cytometry counting events. Arrows indicate leftward shifts of the histogram as a result of mAb serial dilutions. (FIG. 6C) mAb binding to HEK293 cells w/o ZnT8 overexpression as indicated. Immunofluorescence intensities of mAb20 or mAb39 labeling in serial dilutions were obtained from (FIG. 6B). Solid lines are least-squares fits of the binding data to a one-component binding process.
Flow cytometry analysis. HEK293 cells w/o ZnT8 over-expression were fixed, permeabilized, and resuspended in PBS plus 5% BSA at a density of 1×10⁶/ml as described previously (43). Aliquots of 100 μl cell suspension were stained with mAb20 or mAb39 in 3-fold serial dilutions for 2 hours at RT, and then stained with Alexa fluor 647-conjugated donkey-anti-mouse secondary antibody in 1:1000 dilution with 5% BSA (Thermo Fisher Scientific, cat. #A31571). The labeled cells were analyzed immediately by flow cytometry. […]
Binding affinity. […] No mAb staining was detected in parental HEK293 cells without ZnT8 over-expression. […]

Assay [2] deals with T2, mouse ZnT8-His (mouse, UniProt Q8BGG0 1-367, limits assumed).
T2 construct: Over-expressed in HEK293 cells, solubilized with DDM and immobilized on Ni-NTA plates, or SDS-denatured on immunoblots; not shown: C-terminal poly-histidine tag
T2 sequence (looked up): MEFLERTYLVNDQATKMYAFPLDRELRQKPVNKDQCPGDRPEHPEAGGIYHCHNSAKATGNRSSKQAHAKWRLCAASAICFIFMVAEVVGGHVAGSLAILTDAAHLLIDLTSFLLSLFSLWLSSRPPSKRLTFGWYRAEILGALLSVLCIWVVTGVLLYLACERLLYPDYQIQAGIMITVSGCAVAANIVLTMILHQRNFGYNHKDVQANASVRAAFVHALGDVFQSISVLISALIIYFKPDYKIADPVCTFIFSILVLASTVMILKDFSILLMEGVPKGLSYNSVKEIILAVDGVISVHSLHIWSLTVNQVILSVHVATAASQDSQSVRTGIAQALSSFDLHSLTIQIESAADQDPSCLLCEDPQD
The assay is described as follows: ELISA titration on ZnT8-His immobilized on Ni-NTA plate; reference is human ZnT8-His; fold ratio of mouse to human apparent affinity; Ni-NTA plate titration. From the text:
(§1) FIG. 7A-7D. mAb binding specificities (FIG. 7A) mAb binding to ZnT8-His immobilized to Ni-NTA plate. Bound mAb20 (red) or mAb39 (magenta) was detected by an HRP-conjugated secondary antibody. Solid lines are least-squares fits of binding datapoints to a one-component binding process. Error bars are standard errors (n=8). (FIG. 7B) SDS-denatured mouse ZnT8-His (labeled as M) and human ZnT8-His (labeled as H) on immunoblots were detected by mAb20 or mAb39 as indicated. […] (FIG. 7C) Detection of endogenous human ZnT8 in EndoC-βH cells by mAb20 or […] immunoblotting. An equal amount of EndoC-βH lysate (5 μg total protein) was loaded to each lane. (FIG. 7D) Immunoblotting of HEK lysates with or with over-expression of a ZnT homolog as indicated. An approximately equal amount of total lysate protein (5 μg) was located to each lane, probed by either mAb20, mAb39, or anti-FALG antibody as indicated. FIG. 8. HTRF response to human ZnT8, mouse ZnT8 and human ZnT3.
(§2) Binding specificities. […] Of note, the epitope-masking effect of ZnT8 immobilization weakened the apparent binding affinities of both mAbs as compared to the affinities determined by flow-cytometry, and such a weakening effect was more pronounced for mAb39, probably due to a closer proximity of the mAb39 epitope to the C-terminal His-tag. Next, we compared the immunoreactivities of mAbs to denatured ZnT8.
On the technique in general: ELISA stands for enzyme-linked immunosorbent assay.

Assay [3] has as its target T2, mouse ZnT8-His. Briefly: ELISA titration on mouse ZnT8-His immobilized on Ni-NTA plate; apparent binding affinity, one-component fit; DDM-solubilized mouse ZnT8 immobilized to Ni-NTA plate via His-tag; mAb titration.
Text: as §1, §2

For assay [4], the target named is T2, mouse ZnT8-His. The assay is described as follows: ELISA titration on ZnT8-His immobilized on Ni-NTA plate; reference is human ZnT8-His.
Text: as §1, §2

Assay [5] addresses T2, mouse ZnT8-His. Briefly: ELISA, ZnT8-His on Ni-NTA plate, HRP-conjugated secondary antibody; binder taken from the axis label and paragraph 166; curve taken as mouse.
Text: as §1, §2

B1: mAb20 (antibody, V domains shown)
VH: QIQLVQSGPELKKPGETVKISCKASGYIFTNYPMHWVKQAPGKGLKWMGWINTYSGVPTHADDFKGRFAFSLETSANSAFLQINNLKNEDTATYFCTRSRITPTGGYAMDYWGQGTSVTVSS
VL: DVVMTQTPLSLPVSLGDQASISCRSSQSLVHSNGNTYLHWYLQKPGQSPNLLISKVSNRFSGVPERFSGSGSGTDFTLKISRVEAEDLGVYFCSQNTHVPWTFGGGTKLEIKR
notes: Mouse hybridoma mAb purified on protein A/G; In some assays it was labelled with Alexa Fluor 488 or terbium cryptate; also called monoclonal antibody mAb20; anti-ZnT8 mAb20
With B1, the Kd in assay [1] came to 0.8 nM; with mouse ZnT8-His [3] it was 1420 nM. For the same molecule, the “fold difference in apparent binding affinity, mouse against human ZnT8” value in the assay with mouse ZnT8-His [2] is 567 fold.

B2: mAb39 (antibody, V domains shown)
VH: QVQLQQPGAELVKPGASVKLSCKASGYSFTTYWMHWVKQRPGQGLEWVGDINPRNGRTNYNEKSKSKATLTVDISSSTVYMQVSSLTSEDSAVYYCAIWSGAMDYWGPGTSVTVSS
VL: DVVMTQTPLSLPVSLGDQPSISCKSSQSLVHNNGNTYLHWYLQKPGQSPKLLIYKVSNRFSGVPDRFSGSGSGTDFTLKISRVEAEDLGVYFCSQTTHVPPTFGGGTKLEIKR
notes: Mouse hybridoma mAb purified on protein A/G; In some assays it was labelled with Alexa Fluor 555 or d2; also called monoclonal antibody mAb39; anti-ZnT8 mAb39
For B2, the “fold difference in apparent binding affinity, mouse against human ZnT8” value in the assay with mouse ZnT8-His [4] stood at 2 fold. The Kd is 0.7 nM in assay [1] and 35.8 nM with mouse ZnT8-His [3]. Further, the concentration for a half-maximal effect (EC50 (read off the curve)) (usually the concentration that produces a half-maximal response) with mouse ZnT8-His [5] was about 30 nM.
